Test results reported in patent US20150148403A1 (ACADEMIA SINICA, published 2015).
Substitutions are numbered along the chain they refer to. Names may count otherwise.

Key:
[1] = biological target: T1, Flag-tagged USP37 (human, UniProt Q86T82 1-979); assay: co-immunoprecipitation from transfected HEK-293T cells
T1 construct: Expressed in transfected HEK-293T cells and tested in lysate by co-immunoprecipitation; also called Flag-USP37; USP37 WT; not shown: 3xFLAG tag from the pCMV-3xFLAG vector
T1 sequence: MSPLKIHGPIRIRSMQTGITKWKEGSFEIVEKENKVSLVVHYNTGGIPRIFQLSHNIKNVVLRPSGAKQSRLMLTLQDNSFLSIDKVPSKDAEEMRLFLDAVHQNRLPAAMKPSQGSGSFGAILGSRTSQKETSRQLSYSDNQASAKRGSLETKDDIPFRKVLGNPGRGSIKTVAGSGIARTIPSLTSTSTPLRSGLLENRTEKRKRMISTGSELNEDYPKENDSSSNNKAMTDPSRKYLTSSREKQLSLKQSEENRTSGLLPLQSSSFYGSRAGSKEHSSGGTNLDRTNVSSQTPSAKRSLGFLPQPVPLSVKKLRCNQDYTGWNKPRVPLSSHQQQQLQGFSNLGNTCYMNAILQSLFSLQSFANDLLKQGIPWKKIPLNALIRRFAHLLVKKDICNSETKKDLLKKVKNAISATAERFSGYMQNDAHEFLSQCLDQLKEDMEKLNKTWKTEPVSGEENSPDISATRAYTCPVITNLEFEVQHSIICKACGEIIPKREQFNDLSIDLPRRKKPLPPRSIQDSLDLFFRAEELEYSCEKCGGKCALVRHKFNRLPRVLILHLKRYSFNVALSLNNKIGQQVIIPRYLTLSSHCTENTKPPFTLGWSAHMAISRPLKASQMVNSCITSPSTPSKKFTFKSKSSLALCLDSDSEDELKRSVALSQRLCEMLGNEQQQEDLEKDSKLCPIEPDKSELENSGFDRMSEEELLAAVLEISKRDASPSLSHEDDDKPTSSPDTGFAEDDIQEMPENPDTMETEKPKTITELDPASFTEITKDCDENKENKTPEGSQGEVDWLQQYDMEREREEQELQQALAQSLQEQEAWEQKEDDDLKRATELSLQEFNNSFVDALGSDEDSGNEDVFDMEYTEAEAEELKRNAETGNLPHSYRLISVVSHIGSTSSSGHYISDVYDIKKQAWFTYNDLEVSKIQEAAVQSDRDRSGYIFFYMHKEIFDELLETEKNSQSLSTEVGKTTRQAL

[2] = biological target: poly-ubiquitinated PLZF/RARA immunoprecipitated from HEK-293T cells expressing Flag-tagged PLZF/RARA and Myc-tagged Ub

B1: HA-tagged RARA (receptor, UniProt P10276 1-462, looked up)
chain: MASNSSSCPTPGGGHLNGYPVPPYAFFFPPMLGGLSPPGALTTLQHQLPVSGYSTPSPATIETQSSSSEEIVPSPPSPPPLPRIYKPCFVCQDKSSGYHYGVSACEGCKGFFRRSIQKNMVYTCHRDKNCIINKVTRNRCQYCRLQKCFEVGMSKESVRNDRNKKKKEVPKPECSESYTLTPEVGELIEKVRKAHQETFPALCQLGKYTTNNSSEQRVSLDIDLWDKFSELSTKCIIKTVEFAKQLPGFTTLTIADQITLLKAACLDILILRICTRYTPEQDTMTFSDGLTLNRTQMHNAGFGPLTDLVFAFANQLLPLEMDDAETGLLSAICLICGDRQDLEQPDRVDMLQEPLLEALKVYVRKRRPSRPHMFPKMLMKITDLRSISAKGAERVITLKMEIPGSMPPLIQEMLENSEGLDTLSGQPGGGGRDGGGLAPPPGSCSPSLSPSSNRSSPATHSP
notes: Expressed in transfected HEK-293T cells; not shown: HA tag
- binding result [1]: no binding

B2: MBP-fused USP37 recombinant protein (protein)
chain: T1 sequence
- in vitro deubiquitination of poly-ubiquitinated PLZF/RARA (immunoblot) [2]: the recombinant USP37 WT but not CA mutant could deubiquitinate PLZF/RARA in vitro

B3: recombinant USP37 CA mutant (USP37 C350A) (protein)
chain: T1 sequence with C350A
- in vitro deubiquitination of poly-ubiquitinated PLZF/RARA (immunoblot) [2]: the recombinant USP37 WT but not CA mutant could deubiquitinate PLZF/RARA in vitro
